B1: IR-rpoA-U (ssRNA)
RNA: AUUAUACGUGA
B2: Cy5-rpoA (ssRNA)
RNA: AUUACACGUGA
B3: IR-rpoA-A (ssRNA)
RNA: AUUAAACGUGA
B4: Cy5-rpoA-G (ssRNA)
RNA: AUUAGACGUGA

Columns and labels:
Assay in all cases: high-throughput RNA pulldown from lysate on Ni-NTA beads; HRP: 50 mM Tris pH 8, 150 mM NaCl, 1 mM beta-mercaptoethanol, 50 ug/ml BSA, 3 ug/ml yeast RNA, 0.5% heparin; ITC and FP: Tris pH 8, 200 mM KCl, 5% glycerol; MST: 50 mM Tris pH 8, 200 mM NaCl, 1 mM DTT, BSA, heparin, 0.05% Tween 20
Settings in all cases: tags: N-terminal His-eGFP
[1] = target: T1, GFP-9S library array, motif 4 ND N98D;D124R (synthetic construct, N98D;D124R)
T1 chain: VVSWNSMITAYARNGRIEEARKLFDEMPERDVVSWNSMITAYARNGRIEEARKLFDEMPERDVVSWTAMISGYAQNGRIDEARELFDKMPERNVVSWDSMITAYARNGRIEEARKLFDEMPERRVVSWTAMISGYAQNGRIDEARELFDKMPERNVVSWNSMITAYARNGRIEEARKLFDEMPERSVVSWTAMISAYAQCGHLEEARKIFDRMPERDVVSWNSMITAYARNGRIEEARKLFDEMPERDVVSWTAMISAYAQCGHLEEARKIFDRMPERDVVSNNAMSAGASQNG

[2] = target: T2, GFP-9S library array, motif 4 ND N98S;D124R (synthetic construct, N98S;D124R)
T2 chain: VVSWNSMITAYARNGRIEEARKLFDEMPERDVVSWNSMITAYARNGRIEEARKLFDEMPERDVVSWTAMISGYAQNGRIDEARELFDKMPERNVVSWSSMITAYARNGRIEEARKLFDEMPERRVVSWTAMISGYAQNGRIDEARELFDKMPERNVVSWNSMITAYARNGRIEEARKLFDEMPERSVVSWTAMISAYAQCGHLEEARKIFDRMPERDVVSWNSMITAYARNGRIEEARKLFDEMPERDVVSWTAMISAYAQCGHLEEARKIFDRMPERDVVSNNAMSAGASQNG

[3] = target: T3, GFP-9S library array, motif 4 ND N98S;D124G (synthetic construct, N98S;D124G)
T3 chain: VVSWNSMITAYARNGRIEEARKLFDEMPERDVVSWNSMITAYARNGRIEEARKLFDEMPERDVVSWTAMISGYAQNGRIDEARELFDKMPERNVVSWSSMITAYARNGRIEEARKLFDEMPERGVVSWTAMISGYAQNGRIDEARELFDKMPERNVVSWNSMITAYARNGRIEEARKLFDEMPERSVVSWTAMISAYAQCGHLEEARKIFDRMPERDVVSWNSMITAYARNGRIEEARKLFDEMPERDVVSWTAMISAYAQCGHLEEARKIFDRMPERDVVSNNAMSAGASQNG

[4] = target: T4, GFP-9S library array, motif 4 ND N98W;D124F (synthetic construct, N98W;D124F)
T4 chain: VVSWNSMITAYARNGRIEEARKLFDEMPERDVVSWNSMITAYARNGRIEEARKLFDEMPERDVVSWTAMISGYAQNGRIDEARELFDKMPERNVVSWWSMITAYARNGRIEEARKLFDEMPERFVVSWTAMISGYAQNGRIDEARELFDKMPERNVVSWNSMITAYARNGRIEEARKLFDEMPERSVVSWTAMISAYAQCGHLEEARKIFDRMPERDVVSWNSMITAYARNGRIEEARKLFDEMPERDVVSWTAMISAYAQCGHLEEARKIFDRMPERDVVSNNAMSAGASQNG

[5] = target: T5, GFP-9S library array, motif 4 ND N98S (synthetic construct, N98S)
T5 chain: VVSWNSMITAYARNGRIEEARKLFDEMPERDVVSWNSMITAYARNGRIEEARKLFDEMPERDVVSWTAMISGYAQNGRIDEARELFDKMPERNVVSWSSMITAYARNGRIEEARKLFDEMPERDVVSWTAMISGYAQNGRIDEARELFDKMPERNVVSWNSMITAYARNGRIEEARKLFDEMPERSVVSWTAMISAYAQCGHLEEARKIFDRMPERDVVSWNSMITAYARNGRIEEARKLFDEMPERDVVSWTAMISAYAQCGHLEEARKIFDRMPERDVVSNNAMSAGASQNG

Binder | Kd ([1]; label: 5' IRDye 800CW) | Kd ([2]; label: 5' IRDye 800CW) | Kd ([3]; label: 5' IRDye 800CW) | Kd ([4]; label: 5' IRDye 800CW) | Kd ([5]; label: 5' IRDye 800CW) | Kd ([1]; label: 5' Cy5) | Kd ([2]; label: 5' Cy5) | Kd ([3]; label: 5' Cy5) | Kd ([4]; label: 5' Cy5) | Kd ([5]; label: 5' Cy5)
B1 | 282 nM | 109 nM | 182 nM | 273 nM | 262 nM | – | – | – | – | –
B2 | – | – | – | – | – | 154 nM | 87.7 nM | 181 nM | 95.8 nM | 413 nM
B3 | 326 nM | 63.5 nM | 122 nM | 274 nM | 574 nM | – | – | – | – | –
B4 | – | – | – | – | – | 155 nM | 97.8 nM | 157 nM | 80.4 nM | 17.2 nM
